A protein production outcome set (Wang et al. 2014)

Test: label from the status in PepcDB records

## MRAVIPYKKAGAKSRLSPVLSLQEREEFVELMLNQVISSLKGAGIEQVDILSPSVYGLEEMTEARVLLDEKDLNEALNRYLKEAEEPVLIVMADLPLLSPEHIKEISSTEKDVCIVPGKGGGTNALFIKNPSKYRVKYYGSSFLTHCSIATDSGQDFEIYDSFMAGTDIDEPEDLVELLIHGKGAAKDYIESKFRLEVKKG
  protein production: failed

## MCAFNGAALTALGISHSALLAHSPQGCEYLVNNAFASQECDYMETMTLCTKLCVDEIVHGGEDILARTIREVKDLPISALFVLSACGPEIVGDDIVGVCEALQPEVKFRLVPIESAGFRGSQYDGIDIAMDTILKKLVKDDVEKIPGSVCLEHHHHHH
  protein production: failed

## MTKQFHCVTVGNPNAGKSTLFNALTGANQQVGNWSGVTVEKKTGHFTLNGADVYLTDLPGIYDLLPAGNSCDCSLDEQIAQQYLAEQRVDGIINLVDATNIERHLYLTAQLRELSIPMVVVLNKIDAAIKRGICVDLTKMSQELGCPVIGVCSRDPADVAKVQAQVLDLLQGRVSEAPLLLDYDKQIEAGVQLLCRKDPNLSRGRALAMLGNGSGCGSCKNAQLQDEVNTCTQQIAQQGHDIEVMVATTRFNFVERVFQSSVKADGFLTLSDKLDKLVLHPVLGIPVFLFVMYLMFMFSINIGSAFIDFFDVFAGALLVDHFGALLTNIGAPAWVVTILAGGVGQGIQTVSTFIPVIAALFLGLSILESSGYMARAAFVVDGLMRRIGLPGKAFVPMIVGFGCSVPAIMATRTLGSERERIVTGMMAPFMSCGARLPVYALFAAAFFPDSGQNLVFLLYVIGIFAAIGTGLLLRSTLLPGTSSAVVMELPSYELPKFKAVMVRTGKRTKSFILGAGKTIVLVVTLLNFINAIGVDGSFGHEDSQASLLSVASQKVTPIFAPMGIEQDNWPATVGIITGIFAKEAVVGTLNSLYTNATPEGSELTPLADSFNEALATIPANLFGLDLEDPLKLSVGDVSNTEVAAETQGVATSTFSALQSGFTTKVAAFSYLLFILLYTPCVAAMGALVNEFGTRWATFAATWTFALAYGSATVVYQAATFAAHPLQSSLWIGFFLVALVMFYLWLKRKGRRTQQIIPGVRIITE
  protein production: failed

## MRWITRPGWPGNLLALAAGGLTTLALAPFDFWPLVLVSVAMFYLGLRELSPRQALARGWCYGFGLYGAGTSWIYVSIHTYGGASALLAGLLMLLFIAAIALFFALPAWVWARWLRRNEAPLADSLAFAALWLWQEAFRGWFLTGFPWLYSGYSQLDAPLAGLAPVGGVWLISFALGLTAALLCNLHRLRARKSFLAMGVLLLLAPWVAGLALKDHAWTSPSGPPLKVAAMQGNIEQSMKWDPQKLNDQLALYRDMTFRSQQADLIVWPETAVPVLKESAEGYLSMMGKFAADRGAALITGVPVREPTGRGEYSYYNGITVTGQGDGTYFKQKLVPFGEYVPLQDLLRGLISFFDLPMSDFARGPNDQALLQAKGYHIAPFICYEVVYPEFAAGLSAQSDLLLTVSNDTWFGTSIGPLQHLQMAQMRALEAGRWMIRATNNGVTALIDPFGRITVQIPQFERGVLYGEVVPMHELTPYLHWRSWPLAIVCLLLFGWALLAARISKTV
  protein production: failed

## MEGKGSFSENLVKRLQLVKANRSHLAPLIDLLRSKVSKSVKRNKHFFRDYADQIYIVSSGFKEFILPIVTEFGIKEEHVMANTFTFDNDGNIIGCDANNPLSQDKGKIKLMEKLGLTGDVHVIGDGYTDYEIRGAGLASKFYAFTENVSRAAVTAKADSIAPSFDEILFQEKL
  protein production: failed

## MQELSPAELGEQVQDDDGPLVLDIRHEEDFQEWHIPGSRNVDVYDELTDDPEQAIEPLDDLPSDEQIVTVCAAGVVSQTATAVLRELGYDAVTLTDGMNGWSRVHRHAELPVDVDGTLVQVARPGKGCLSHVLVSDGEAAVFDPSHYLNEYDTVLDEYDAELVGVFDTHAHADHVSGAADLADRHDVPYYLHQKDALAVDATPLEDGQTVTVGRLDIEVIHTPGHSEGSVSFDVEGAALLTGDTLFHDSVGRVELGVEAGIEDADVEGNAATLYESLQRLLDRPDDALVLPAHDPGSPEPPVAATLAEVRERNDDLGRDREAFVEELASDIPDHPPNFERVKRTNVGQESVPEEELAELELGPNNCAAE
  protein production: failed

## MWHIFERFVNEYERWFLVHRFAYLSELQAVKCLLPEGRGVEIGVGTGRFAVPLKIKIGVEPSERMAEIARKRGVFVLKGTAENLPLKDESFDFALMVTTICFVDDPERALKEAYRILKKGGYLIVGIVDRESFLGREYEKNKEKSVFYKNARFFSTEELMDLMRKAGFEEFKVVQTLFKHPSELSEIEPVKEGYGEGAFVVIRGTKK
  protein production: not failed

## MAKNTLSFVCQNCGAAYNRWQGKCESCGEWNTLAEEDTSGSVPVSIRSKRKGRTFALESLAGKSPDAPRLSSGMTELDRVTGGGFVRGSVLLVGGDPGIGKSTLLTQATSLMARAGHRIVYISGEEAIAQVRLRAERLGLSDAPVQLAAETSVEDIVSTLSEGAVPRLIVIDSIQTMWTDTVESAPGTVTQVRASAQALIRFAKKTGAAIILVGHVTKDGQIAGPRVVEHMVDAVMSFEGEGSQQFRILRAVKNRFGPTDEIGVFEMTGLGLREVTNPSELFLSERDLGTPGTAVFAGIEGTRPVLVELQALVAPTSLGTPRRAVVGWDPSRLSMVLAVLEAHCGVKLSGHDVYLNVAGGLRIHEPAADLAAAAALVSSLVNAQLPTDAVYFGEISLSGVVRPVAQTPARLKEAAKLGFQRAVLPESARGEAGGDAGLSLNAVNSLTTLVAEIAARGSRRGESGGSAEKNATPARFRRGEGLEHHHHHH
  protein production: failed

## MPGELLGAHYGHCFGCGEEQSHGLHLAARAGQGVSITAEFTVQPAHQGAPGLAHGGVLATALDETLGSLNWLLRTIAVTGRLETDFVRPVPVGTVLYLEAEVTAVAGRKIYSTATGRIGGPEGPVAVRADALFVEVKVDHFTDNGRQEEIRAAMNDPDQLRRARAFEVNPLEHHHHHH
  protein production: failed

## IAAGGSHVEAAPQEEWKKHFIHTGELGSAEFASVMSHTTSAMKSVFEQVNAPYSGMDPKALEDAINAVDLDNKNAPLKSVIDDVAELVAKNAIFTQHPDCIAHLHTPPLMPAVAAEAMIAALNQSMDSWDQASSATYVEQKVVNWLCDKYDLSEKADGIFTSGGTQSNQMGLMLARDWIADKLSGHSIQKLGLPDYADKLRIVCSKKSHFTVQKSASWMGLGEKAVMTVDANADGTMDITKLDEVIAQAKAEGLIPFAIVGTAGTTDHGAIDDLDFIADMAVKHDMWMHVDGAYGGALILSSHKSRLKGVERAHSISVDFHKLFYQTISCGALLVNDKSNFKFLLHHADYLNREHDELPNLVDKSIATTKRFDALKVFMTMQNVGPKALGDMYDHLLAQTLEVADMIRTNDQFELLAEPSLSTVLFRATHETADLDELNKALRLEALTRGIAVLGETIVDGKTALKFTILNPCLTTSDFESLLSKINMLAVELV
  protein production: not failed

## GTIGPVADAEPHAAALGEAFQLTNFLRDVGEDLDRGRVYLPADELAAFGVDTELLAHSRRSGTTDQRIVRALAHLISVTRSVYRDAEPGIAMLDRRVQPGIRTAFVLYSRILDEIERGGYRVLDRRATVSRRNRWATALPQFARLAV
  protein production: failed

## MKVALGGTFEPLHEGHKKLIDVAIKLGGRDITIGVTSDRMARARIRSVLPFAIRAENVKRYVMRKYGFEPEIVKITNPYGKTLDVDFEYLVVSPETYEMALKINQKREELGKRKITIVKVDWMMAEDGKPISSTRIKRGEID
  protein production: not failed

## MSAQDTQSLGVWSDCLTLLRLELLRAVPKSAVGLGCGKKIHANGILDEIFFPLDISIASAYVKTKMNFNPPTLQHLAGRSLMKDEALAISALQDLPMQLFPPLFKDAFTSKQSNILKQMVAAWPFPCLPVGGLMETPPHLETLKAVLDGLDLLMKQKVRLRMWKLQVLDLRDAHHDFWKGYTGIQDLVSSLDVIGKTQPVGNHPIIGGKQVMTVLMNLSFTSRHPSKYIKYLCHWAKQRKNVIQVICQKLEFGAIPAYDSLNVLGVFDLGSIQELEINKCWDMCTLALLAPGLGQMKNLQKLLLKEICITVDWPWDQKTEGLCVKQIFFQFSKLRNLQHLYLNDVYFLNEHLDQVLRCLESPLETLAITHCMLSQSDMKYLSQCPSIHQLKHLDLSGVTFINLSHPFLRSLLERVTATLKTLKLNGCMIMDFQIRALLPVLSQCSQLTEVNFEENSLSMDSLKKLLQHTANLTHLTLEKYPAPDEVYDDTGNVIPHRFIQLCSELMDTLKILRQPNHVYFVSKKCLDCHKYFIYNLEAMLCSCWQ
  protein production: failed

## MPKNKGKGGKNRKRGKNEADDEKRELIFKEDGQEYAQVLRMLGNGRCEAMCIDGTKRLCHIRGKMHKKVWIAAGDIVLVGLRDYQDDKADVILKYMSDEARLLKAYGELPENTRLNEGIVGDLEDDDDNNDDDYVEFEDEDIDRI
  protein production: failed

## MNAKLEVNGELVKESYVYLLSRYLVLRQENFDTKEDKIPYNTLKHNSVAPADANFVNPNFDVVYSEAWIAVDDDNAVILEVPEIKNRYYTVQLLDGWGEVVTNINERNYPDHPYGKFAFVKKGTNPSVPSDAVKIELPSEKVKVLLRVEQKDDPEGAVKLQKAFKFDAPDNIKIKEPLEIPHFTNADFLLEEIYSNLEELLATYPDKMPKAAEFQDKARQVAAYIELGDEQKAEVRNLIVKEAIPYFTDGAKGFGTQKGGWSVTYVAGAFENDILARAIINYGGIWANSIQEALYFIGQQGTDGELLSGDKVYKIHFPKDQLPNGLAEAFWSVTLYGVPDYHVIPNKLNKFSINDYTGPKTNEDGSLSLYIAAEKPADVDPGNWLPSKAGKGFSLNFRLYVPKKEVLEGKVFLPPLEVL
  protein production: failed

## MKKLINIILLSLIFVFCFNLKVLANDNLESSKEKIDNDSRIERFYDYINNLETEEDILGNMSAKEYIMNYLESGEDPITLKKIGASILSYIFRELNIVLKFIASILVIALLSALLKNLQDAFNIEEGVTQIAFFACYALLIMLLTKSFFISLNLGKEVLTSIIDFMNVIVPVIVMLIATSGGVTSAVTIDPIVLGAVSITPRIYTYFLFPLILAYFTLQFVNNLSSEFKIDRMCKFIKQVVMISQGFILTIFVGILTLRGMTADTLDAVAVKTVKFAVDNFVPIVGKAFSDAITTVAGYSLAMKSVITSLGVIVIVVIVIYPIIKIGLMAICFKLTSAVIEPVVDSKISSSVETVGEALFMIMSCIISVSIMFFIMASMMATAGNFIVGG
  protein production: failed

## MILTYHNMYYYQNESRDIAAALLIMTLAFFILLNGLGFYGLLSLIYLAIAFLVVVTAFLFHELAHRAVARRLGAVAFFKLWPIGAFLALITSLFHFLFAAPGAVEFAGVYDNESQGKIALAGPATNIIIGIITYILSIFSLGIVHYVLYYVGALNLWFALFNMIPIPPLDGSKVFYWKGSIFAGVFVFTIIMNIVDGFLLHII
  protein production: failed

## MAGAMRKMAVYLGLVEDDGYDGRGFDPDDDFEPELDPEPERDHRRHEPAHQSHGAHQSQRDEEVRVVQPPAQREPMPRAASLAAESSRPARIAPVASITQERASLEKSAPVIMPKVVSEREPYRITTLHPRTYNEARTIGEHFREGTPVIMNLTEMDDTDAKRLVDFAAGLVFGLHGSIERVTQKVFLLSPANVDVTAEDKARIAEGGFFNQSLEHHHHHH
  protein production: failed

## MGEEEMPVHPDLEAFIESIPWHRHLGLKVLALHPGHARLVIPFQAGFTGNAARGALHGGIIASLADSCGNAALWTHFGPDDRIATINIGVDYFRPAPLADLMAEAEVRLLGNRIGNVHVRLAPLAEPSQTVAEGRTVCYVKRMSLEHHHHHH
  protein production: failed

## MVGVRMTKKVLIVEDNELNMKLFHDLLEAQGYETLQTREGLSALSIARENKPDLILMDIQLPEISGLEVTKWLKEDDDLAHIPVVAVTAFAMKGDEERIREGGCEAYISKPISVVHFLETIKRLLERQPA
  protein production: not failed

## RSSYVLPDKFVLSVPIQGNLDEVHSLSSSLPLLSSAEPLSFQDLLFLFDHAAGDKRIGSILLEIGGVHANPAKLTELRYSIEKMKASGKKVVAFLRSAEDSDYLLATACDSIVVEEGGFLMLDGLKAETLFYTKSLNKIGITFQASQWKTYKSGIEPFVRTGASSEYLEQIGELLDDVYDDYLGYASKRRGISRDSLQAVIDNMALLSAKKAVQLGLADGIASSWA
  protein production: failed
